Results published in patent publication US20260234242A1 (HAINAN SIMCERE ZAIMING PHARMACEUTICAL, published 2026).

Experiments:
[1] = molecular target: T1, human CDH6 with EC1 removed, on HEK293T cells (HEK293T-hCDH6-EC1 deletion) (human, UniProt P55285 160-790); test: FACS, HEK293T-hCDH6-EC1 deletion cells
T1 construct: Signal peptide not removed here
T1 sequence: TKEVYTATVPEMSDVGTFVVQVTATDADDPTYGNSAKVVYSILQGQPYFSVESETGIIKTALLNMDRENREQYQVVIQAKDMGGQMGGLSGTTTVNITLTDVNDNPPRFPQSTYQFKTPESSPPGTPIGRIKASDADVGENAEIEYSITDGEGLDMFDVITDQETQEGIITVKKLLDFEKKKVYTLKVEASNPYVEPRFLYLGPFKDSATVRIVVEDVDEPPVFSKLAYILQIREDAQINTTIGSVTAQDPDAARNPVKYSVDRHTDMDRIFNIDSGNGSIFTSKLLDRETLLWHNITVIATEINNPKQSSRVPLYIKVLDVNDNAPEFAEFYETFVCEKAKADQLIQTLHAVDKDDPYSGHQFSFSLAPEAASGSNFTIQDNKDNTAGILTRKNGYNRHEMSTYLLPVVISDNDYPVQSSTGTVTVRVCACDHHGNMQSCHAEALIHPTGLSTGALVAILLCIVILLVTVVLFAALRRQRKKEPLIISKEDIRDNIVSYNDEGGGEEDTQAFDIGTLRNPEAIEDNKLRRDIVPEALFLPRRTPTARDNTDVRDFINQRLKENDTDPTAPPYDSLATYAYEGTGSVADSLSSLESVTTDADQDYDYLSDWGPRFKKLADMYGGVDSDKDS

[2] = molecular target: T2, human CDH6 on tumor cells (OVCAR3 cells, PA-1 cells) (human, UniProt P55285 54-790); test: FACS, OVCAR3 cells
T2 sequence: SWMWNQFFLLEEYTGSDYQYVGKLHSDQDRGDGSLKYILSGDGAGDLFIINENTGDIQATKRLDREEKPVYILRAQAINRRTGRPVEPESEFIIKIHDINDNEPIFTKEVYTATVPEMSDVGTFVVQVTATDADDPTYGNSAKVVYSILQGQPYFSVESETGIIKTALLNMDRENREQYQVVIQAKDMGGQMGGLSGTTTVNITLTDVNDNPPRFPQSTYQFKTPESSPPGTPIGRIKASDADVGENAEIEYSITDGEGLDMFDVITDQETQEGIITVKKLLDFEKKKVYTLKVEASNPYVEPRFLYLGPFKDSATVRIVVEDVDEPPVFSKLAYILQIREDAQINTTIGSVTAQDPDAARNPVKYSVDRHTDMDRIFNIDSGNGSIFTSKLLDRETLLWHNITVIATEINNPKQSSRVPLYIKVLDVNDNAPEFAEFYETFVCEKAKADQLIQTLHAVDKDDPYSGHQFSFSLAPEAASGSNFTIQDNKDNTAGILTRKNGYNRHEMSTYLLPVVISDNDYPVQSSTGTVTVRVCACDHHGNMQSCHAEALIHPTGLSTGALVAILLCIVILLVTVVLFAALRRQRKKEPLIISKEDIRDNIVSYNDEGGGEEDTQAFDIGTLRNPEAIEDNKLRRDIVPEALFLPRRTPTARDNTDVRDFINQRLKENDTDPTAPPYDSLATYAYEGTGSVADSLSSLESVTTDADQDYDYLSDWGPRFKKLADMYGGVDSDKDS
Summary of the method: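 OVCAR3 (high CDH6) and PA-1 (moderate CDH6) cells in PBS + 2% FBS were incubated with diluted chimeric antibodies for 1 h at 4° C, then with a further reagent for 1 h at 4° C. After washing, mean fluorescence intensity was read by flow cytometry and EC50 values came from curve fitting.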

[3] = molecular target: T2, human CDH6 on tumor cells (OVCAR3 …); test: FACS, OVCAR3 cells, 4° C. arm of endocytosis assay
Procedure: OVCAR3 cells were cultured until a confluence of 90% was reached, the medium was removed by pipetting, the cells were washed once with PBS, and then treated with an enzyme-free cell dissociation solution (Versene, purchased from Gibco, Cat. No. 15040-066) and the cells were collected. The cells were washed once with PBS, counted, resuspended to 2×10⁶ cells/mL in an FACS buffer (PBS+2% FBS), and then added to two 96-well plates at 50 μL/well. The chimeric antibodies were diluted with FACS buffer (PBS+2% FBS) to 10 μg/mL and separately added to the two 96-well plates at 50 μL/well, and the plates were incubated at 4° C. for 1 h. After the cells were washed 3 times with PBS, the cells were resuspended in an FACS buffer. One 96-well plate was incubated at 4° C. for 1 h, and the other 96-well plate was incubated at 37° C. for 1 h. […] After the plates were centrifuged and washed 2 times with PBS, the cells were resuspended in an FACS buffer. The mean fluorescence intensity (MFI) was measured using FACS Canton II (BD). The chimeric antibodies tested all had good endocytic activity.
Some of the antibodies were selected for the endocytic activity assay, and the method for assaying the endocytic activity of the humanized antibodies in OVCAR3 cells was the same as that in 2.4. The humanized antibodies tested all had good endocytic activity.

B1: CHI-CDH6-1 (antibody, human IgG1, kappa, V domains shown)
VH: QVQLQQPGAELVRPGSSVKLSCKASGYTFTNYWMHWVKQRPIEGLEWIGDIDPSHSETHYTQKFKDKATLTVDKSSSTAYMQLSSLTSEDSAVYYCARGDLGRFDYWGQGTTLTVSS
VL: DIVLTQSPASLAVSLGQRATISCRASESVSIHGTHLMHWYQQKSGQPPKLLIYAASNLESGVPARFSGSGSETDFTFNIHPVEEEDAATYFCQQSFEDPWTFGGGTKLEIKR
notes: also called CHI-hCDH6-1; CH1-CDH6-1
binding result [1]: no binding

B2: CHI-CDH6-5 (antibody, human IgG1, kappa, V domains shown)
VH: QVQLQQSGAELVRPGTSVKMSCKAAEYTFTNYWIGWVKQRPGHGLEWIGDLYPGGDHANYNEKFEGKATLTADTSSSTAYMQLSSLTSEDSAIYYCARGMLTTGFDSWGQGTTLTVSS
VL: DIVMSQSPSSLAVSAGEKVTMSCKSSQSLFNSRTRKNYLAWYQQKPGQSPKLLIYWASTRESGVPDRFTGSGSGTDFTLTISSVQAEDLAVYYCKQSYYLRTFGGGTKLEIKR
notes: also called CH1-CDH6-5; chimeric antibody of murine CDH6-5
binding result [1]: no binding

B3: CHI-CDH6-6 (antibody, human IgG1, kappa, V domains shown)
VH: EVQLQQSGPELVKPGDSVKMSCKASGYTFTDYYMAWVRQSHRKSLEWIGYIFPNSGGTDYSQKFKGKATLTVDKSSSTVYMELHSLTSEDSAVYYCARELGADYGDYYAMDHWGQGTSVSVSS
VL: DIQMTQSPASLSASVGETVTITCRASENIDSYLAWYQQKQGKSPQLLVYSATLLADGVPSRFSGSGSGTQYSLKINSLKSEDVARYYCQHYYRTPPTFGSGTKLEIKR
notes: also called CHI-hCDH6-6; chimeric antibody of murine CDH6-6
EC50 [2]: 0.68 nM
Max MFI [2]: 14100 MFI

B4: CHI-CDH6-7 (antibody, human IgG1, kappa, V domains shown)
VH: EVKLVESGGGLVKPGGSLKVSCAASGFTFSDHGMAWVRQAPGKGPEWVAFISNLAYSIYYADTVTGRFTISRENAKNTLYLEMSSLRSEDTAMYYCARVYVKWYFDVWGAGTTVTVSS
VL: DIQMTQSPASLSASVGETVTITCRASENIDSYLAWYQQKQGKSPQLLVFAATLLADGVPSRFSGSGSGTQYSLKINSLQSEDVARYYCQHYYSTPLTFGAGTKLELKR
notes: also called CH1-CDH6-7; chimeric antibody of murine CDH6-7
binding result [1]: no binding

B5: DS-H01L02 (antibody, human IgG1, kappa, V domains shown)
VH: EVQLVQSGAEVKKPGASVKVSCKASGYTFTRNFMHWVRQAPGQGLEWMGWIYPGDGETEYAQKFQGRVTITADTSTSTAYMELSSLRSEDTAVYYCARGVYGGFAGGYFDFWGQGTLVTVSS
VL: DIQMTQSPSSLSASVGDRVTITCKASQNIYKNLAWYQQKPGKAPKLLIYDANTLQTGVPSRFSGSGSGSDFTLTISSLQPEDFATYFCQQYYSGWAFGQGTKVEIKR
notes: Positive control, variable regions from WO2018212136A1; also called positive control anti-human CDH6 antibody
MFI_4° C. [3]: 11400 MFI

B6: NOV0712 (antibody, human IgG1, kappa, V domains shown)
VH: QVQLLESGGGLVQPGGSLRLSCAASGFTFSSHGMHWVRQAPGKGLEWVSVISGSGSNTGYADSVKGRFTISRDNSKNTLYLQMNSLRAEDTAVYYCARQWGSYAFDSWGQGTLVTVSS
VL: DIQMTQSPSSLSASVGDRVTITCRASQSISSYLNWYQQKPGKAPKLLIYAVSTLQSGVPSRFSGSGSGTDFTLTISSLQPEDFATYYCQQSGTFPPTTFGQGTKVEIKR
notes: as for B5
MFI_4° C. [3]: 13600 MFI

B7: hCDH6-1-H2L3 (antibody, V domains shown)
VH: EVQLVQSGAEVKKPGSSVKVSCKASGYTFTNYWMHWVRQAPGQGLEWMGDIDPSHSETHYTQKFKDRVTITVDKSTSTAYMELSSLRSEDTAVYYCARGDLGRFDYWGQGTTVTVSS
VL: DIQMTQSPSSLSASVGDRVTITCRASESVSIHGTHLMHWYQQKPGKPPKLLIYAASNLESGVPSRFSGSGSETDFTFTISSLQPEDIATYYCQQSFEDPWTFGGGTKVEIK
notes: Humanized
MFI_4° C. [3]: 20200 MFI

B8: hCDH6-6-H2L2 (antibody, V domains shown)
VH: EVQLVQSGAEVKKPGASVKVSCKASGYTFTDYYMAWVRQAPGQGLEWMGYIFPNSGGTDYSQKFKGRVTLTVDKSTSTVYMELSSLRSEDTAVYYCARELGADYGDYYAMDHWGQGTTVTVSS
VL: DIQMTQSPSSLSASVGDRVTITCRASENIDSYLAWYQQKPGKSPKLLVYSATLLADGVPSRFSGSGSGTDYTLTISSLQPEDFATYYCQHYYRTPPTFGQGTKLEIK
notes: Humanized
EC50 [2]: 0.56 nM
Max MFI [2]: 14300 MFI
MFI_4° C. [3]: 20500 MFI
